Data set [1] concerns humanized ANGPTL4 mice. Description: Serum TG, H4H268P2 and fenofibrate alone or in combination. The format is in vivo, mouse. Here is the method: The effects of the anti-ANGPTL4 antibody H4H268P2 and TG-reducing drug fenofibrate, each alone or in combination, on serum TG levels were evaluated in humanized ANGPTL4 mice. The mice were pre-bled 7 days before the experiment after 4 hours of fasting and put into 4 groups of six mice each. Groups 2 and 4 were administered with H4H268P2 at 10 mg/kg by subcutaneous injection on day 0 and groups 1 (control group) and 2 were placed on regular chow diet. Groups 3 and 4 received chow diet supplemented with 0.05% (w/w) of fenofibrate (the dosage level was determined experimentally in a pilot study). Serum was collected from a terminal bleed on day 7 after H4H268P2 and/or fenofibrate administration (after 4 hours of fasting) and analyzed by ADVIA® 1800 Chemistry System (Siemens).

For data set [2], the system named is C57BL/6 mice given hANGPTL4-mFc. The format is in vivo. The settings on record: antibody 5 mg/kg s.c.; 24 h later hANGPTL4-mFc 25 μg/mouse i.v.; bled 30 min after; mean±SEM. The protocol:
In another set of experiments, selected anti-hANGPTL4 antibodies were tested for their ability to inhibit hANGPTL4-induced increase of triglyceride levels. Measurements of total cholesterol, LDL, NEFA-C and HDL were also made. Briefly, C57BL/6 mice were put into groups of five mice each for each antibody tested. Antibodies were administered at 5 mg/kg dose by subcutaneous injection. Control group I, i.e., mice that received neither anti-hANGPTL4 antibodies nor hANGPTL4, were administered with PBS. Twenty-four hours post-injection of antibody, hANGPTL4-mFc (SEQ ID NO:480) was administered (i.v.) at a dose of 25 μg/mouse to each antibody group. Mice were bled at 30 min after hANGPTL4-mFc injection and lipid levels were determined by ADVIA® 1650 Chemistry System (Siemens). Averages were calculated for each of the measurements of triglycerides, total cholesterol (Total-C), LDL, NEFA-C and HDL for each antibody or control group. Levels of circulating anti-hANGPTL4 antibodies (Serum Ab) were also determined using a standard ELISA assay. Briefly, plates were coated with a goat anti-human Fc antibody (Sigma-Aldrich) to capture Serum Ab. Serum was then added to the plates and captured anti-hANGPTL4 antibodies were detected by chemiluminescence using a horseradish peroxidase (HRP) conjugated goat anti-human IgG antibody (Sigma-Aldrich). Control I: Mice that received PBS, but neither anti-hANGPTL4 antibodies nor hANGPTL4-mFc. Control II: Mice that received a human antibody specific for CD20 (i.e., the mAb having the sequence of 2F2 clone disclosed in US 2008/0260641) and hANGPTL4-mFc.

Data set [3] deals with C57BL/6 mice. The data set is described as follows: In vivo effect of hANGPTL4-mFc on plasma lipid levels. More on the design: species or system mouse. The protocol:
hANGPTL4 was administered intravenously to C57BL/6 mice to determine the biological effect of hANGPTL4 on plasma lipid levels. Briefly, C57BL/6 mice were put into four groups of five animals and each group was administered with different amount of hANGPTL4-mFc protein (SEQ ID NO:480): 25 μg, 50 μg, 100 μg and 300 μg, per mouse. A control group received injections of PBS. hANGPTL4-mFc protein and PBS were administered by intravenous injection (i.v.) via tail vein. Mice were bled at 15 min, 30 min, 60 min and 120 min after delivery of hANGPTL4-mFc or PBS and plasma lipid levels were determined by ADVIA® 1650 Chemistry System (Siemens). Measurements of triglycerides, total cholesterol, low density lipoprotein (LDL), nonesterified fatty acids (NEFA-C) and high density lipoprotein (HDL) were determined for each dose group. […] Thus, the 25 μg dose of hANGPTL4-mFc was selected as a possible minimum dosage for analysis of inhibition of ANGPTL4-induced increase in serum triglyceride levels by selected anti-hANGPTL4 antibodies as described below.

The target of data set [4] is T1, hANGPTL4(26-148)-mFc (Homo sapiens, UniProt Q9BY76).
T1 construct: amino acid residues 26-148 of human ANGPTL4 fused in-line to mouse IgG2a (hANGPTL4-mFc)
The data set is described as follows: BIACORE, full mAb or Fab over anti-mFc captured hANGPTL4(26-148)-mFc. It counts as binding. Here is the method: (§1) Briefly, various concentrations (3.125 nM-100 nM) of anti-hANGPTL4 antibodies (i.e., H1H268 Fab, entire H1H268 mAb, H1H284 Fab, and entire H1H284 mAb) were injected over a low density anti-mFc captured hANGPTL4(26-148)-mFc (˜68±4 RU) surface, or the surface of amino-coupled hANGPTL4(26-406)-His (R&D Systems) (450 RU) or amino-coupled cynomolgus monkey N-terminal region (amino acid residues 1-130 of SEQ ID NO:490) expressed with an C-terminal hexa-histidine tag (MfANGPTL4(1-130)-His) (1,028 RU). Kinetic analysis was performed to measure ka and kd, and KD values and half-life of antigen/antibody complex dissociation were calculated. The results are shown in Table 4 (H1H268P) and Table 5 (H1H284P).

Data set [5] deals with T2, hANGPTL4(26-406)-His (Homo sapiens, UniProt Q9BY76).
T2 construct: purchased R&D Systems
T2 sequence (Q9BY76 26-406): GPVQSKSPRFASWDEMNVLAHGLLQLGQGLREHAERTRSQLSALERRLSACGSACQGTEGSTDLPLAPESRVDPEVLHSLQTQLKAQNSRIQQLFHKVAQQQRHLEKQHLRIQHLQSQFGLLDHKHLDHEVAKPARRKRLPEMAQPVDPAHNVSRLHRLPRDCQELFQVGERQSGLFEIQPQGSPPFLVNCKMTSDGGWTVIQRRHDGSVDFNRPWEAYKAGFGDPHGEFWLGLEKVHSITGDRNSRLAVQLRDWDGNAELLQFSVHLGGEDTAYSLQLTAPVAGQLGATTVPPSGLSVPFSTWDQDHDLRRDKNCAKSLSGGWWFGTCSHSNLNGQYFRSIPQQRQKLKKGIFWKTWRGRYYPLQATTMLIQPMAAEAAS
The data set is described as follows: BIACORE, full mAb or Fab over amino-coupled hANGPTL4(26-406)-His. It counts as binding. The settings on record: for RU bound at 50 nM mAb or Fab: amino-coupled 450 RU. Here is the method: as §1
(SPR reads the build-up and loss of mass on a sensor chip optically.)

Data set [6] relates to MfANGPTL4(1-130)-His. The data set is described as follows: BIACORE, full mAb or Fab over amino-coupled MfANGPTL4(1-130)-His. The settings on record: for Response bound at 50 nM mAb or Fab: amino-coupled 1,028 RU. The format is binding, cynomolgus monkey. The protocol: as §1
MfANGPTL4(1-130)-His, sequence (as listed by the source): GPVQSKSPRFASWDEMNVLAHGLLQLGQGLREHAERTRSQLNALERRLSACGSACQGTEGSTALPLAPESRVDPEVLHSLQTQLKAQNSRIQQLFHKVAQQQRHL
Data set [7] addresses T1, hANGPTL4(26-148)-mFc. Description: BIACORE, full mAb or Fab over anti-mFc captured hANGPTL4(26-148)-mFc. The format is binding. The source holds these as a separate data set.
[8] abbreviates: pH 5.75, 25° C., antigen captured 27 ± 0.6 RU.
The mark [9] stands for this setting: pH 7.2, 25° C., antigen captured 35 ± 1.9 RU.

Consider `CC(C)OC(=O)C(C)(C)Oc1ccc(C(=O)c2ccc(Cl)cc2)cc1` [fenofibrate], for which the “TG levels reduced (mean) compared to control group on chow diet” value in data set [1] (day 7, H4H268P2 10 mg/kg s.c. day 0, fenofibrate 0.05% (w/w) in chow) is about 25%. In addition, the “liver enlargement (liver weight/body weight) compared to control chow diet” value in data set [1] (mice that consumed fenofibrate for 7 days (groups 3 and 4)) was 1.8 times.

B1: H1H283P: anti-hANGPTL4 antibody, HCVR/LCVR SEQ ID NOs 66/68 (antibody, V domains shown)
VH: EVQLVESGGGLVQPGGSLRLSCAASGFTFSSYDMHWVRQVAGKGLEWVSAIGTAGDTYYPVSVKGRFTISRENAKNSLYLHMNSLRAGDTAVYFCARGDSRNYYVGDYFDYWGQGTLVTVSS
VL: DIQMTQSPSTLSASVGDRVTITCRASQSISRWLAWYQQKPGKAPKVLIYKASNLESGVPSRFSGSGSGTEFTLTISSLQPDDFATYYCQQYNSYSRTFGQGTKVEIK
In data set [2], B1 displayed an HDL of 40.30 ± 0.72 mg/dL, an LDL of 4.62 ± 0.39 mg/dL, an NEFA-C of 1.13 ± 0.05 mg/dL and a Total-C of 75.80 ± 1.53 mg/dL. The same molecule came in with a Triglycerides in data set [2] of 113.60 ± 8.74 mg/dL.

B2: hANGPTL4(26-148)-mFc: amino acid residues 26-148 of human ANGPTL4 fused in-line to mouse IgG2a (SEQ ID NO:480) (protein)
chain: GPVQSKSPRFASWDEMNVLAHGLLQLGQGLREHAERTRSQLSALERRLSACGSACQGTEGSTDLPLAPESRVDPEVLHSLQTQLKAQNSRIQQLFHKVAQQQRHLEKQHLRIQHLQSQFGLLDPGSLEFALERNSGEPRGPTIKPCPPCKCPAPNLLGGPSVFIFPPKIKDVLMISLSPIVTCVVVDVSEDDPDVQISWFVNNVEVHTAQTQTHREDYNSTLRVVSALPIQHQDWMSGKEFKCKVNNKDLPAPIERTISKPKGSVRAPQVYVLPPPEEEMTKKQVTLTCMVTDFMPEDIYVEWTNNGKTELNYKNTEPVLDSDGSYFMYSKLRVEKKNWVERNSYSCSVVHEGLHNHHTTKSFSRTPGK
Turning to B2, the “increase of circulating triglycerides as compared to control mice (PBS)” value in data set [3] (25 μg/mouse i.v., 30 minutes post injection) is recorded as “greater than two-fold”. Further, in data set [3] (25, 50, 100, 300 μg per mouse i.v., each time point post-injection), the “total cholesterol, LDL, NEFA-C and HDL across dose groups” value is on record as “not significantly different”.

B3: H1H284P Fab: Fab fragment of H1H284P prepared by papain digestion (antibody, V domains shown)
VH: QVQLVESGGGVVQPGRSLRLSCAASGFTFSSYGMHWVRQAPGKGLEWMAVISFDGGNKNNADSVKGRFTISRDNSKNTLYLQMNSLRAEDTAVYYCAKEGDRSGHPYFYYYGLDVWGQGTTVTVS
VL: DIQLTQSPSFLSASVGDRVTITCWASQGISSYLAWYQQKPGKAPKLLIYAASTLQSGVPSRFSGSGSETEFTLTISSLQPEDFATYYCQQLHSYPLTFGGGTKVEIK
Take B3: the ka in data set [4] (pH 5.75, 25° C.) turned out to be 472000 M⁻¹ s⁻¹; in data set [4] (pH 7.2, 25° C.), 245000 M⁻¹ s⁻¹; in data set [5] (pH 5.75, 25° C.), 1.21e+06 M⁻¹ s⁻¹; in data set [5] (pH 7.2, 25° C.) it was 1.11e+06 M⁻¹ s⁻¹; in data set [6] (pH 5.75, 25° C.), 724000 M⁻¹ s⁻¹; in data set [6] (pH 7.2, 25° C.) it was 310000 M⁻¹ s⁻¹. The kd in data set [4] (pH 5.75, 25° C.) turned out to be 0.0016 s⁻¹; in data set [4] (pH 7.2, 25° C.) it was 0.000202 s⁻¹; in data set [5] (pH 5.75, 25° C.) it was 0.00173 s⁻¹; in data set [5] (pH 7.2, 25° C.), 0.000344 s⁻¹; in data set [6] (pH 5.75, 25° C.), 0.00619 s⁻¹; in data set [6] (pH 7.2, 25° C.), 0.00313 s⁻¹. Besides, the “RU bound at 50 nM mAb or Fab” value worked out at 33 in data set [5] (pH 5.75, 25° C.) and 32 in data set [5] (pH 7.2, 25° C.). For the same molecule, the “Response bound at 50 nM mAb or Fab” value in data set [6] (pH 5.75, 25° C.) was found to be 255; in data set [6] (pH 7.2, 25° C.), 214. For the same molecule, the “Response bound at 50 nM mAb or Fab (RU)” value is 56 in data set [7] (setting [8]) and 29 in data set [7] (setting [9]).

B4: H1H268P Fab: Fab fragment of H1H268P prepared by papain digestion (antibody, V domains shown)
VH: QVQLQESGAGLLKPSETLSLTCTVYGGSFSIHHWTWIRHPPGKGLEWIGEINHRGSTNYNPSLKSRVTISIDTSKNQFSLKLSAVTAADTAVYYCARGLRFLDWLSSYFDYWGQGTLVTVSS
VL: DIQMTQSPSSLSASVGDRVTITCRASQGISDYLAWYQQKPGKVPNLLIYAASALQSGVPSRFSGSGSGTDFTLTISSLQPEDVATYYCQNYNTAPLTFGGGTKVEIK
As to B4, the ka was 174000 M⁻¹ s⁻¹ in data set [4] (pH 5.75, 25° C.); 300000 M⁻¹ s⁻¹ in data set [4] (pH 7.2, 25° C.); 444000 M⁻¹ s⁻¹ in data set [5] (pH 5.75, 25° C.); 726000 M⁻¹ s⁻¹ in data set [5] (pH 7.2, 25° C.); 312000 M⁻¹ s⁻¹ in data set [6] (pH 5.75, 25° C.); 267000 M⁻¹ s⁻¹ in data set [6] (pH 7.2, 25° C.). Moreover, the kd is 0.00304 s⁻¹ in data set [4] (pH 5.75, 25° C.); 0.000601 s⁻¹ in data set [4] (pH 7.2, 25° C.); 0.00657 s⁻¹ in data set [5] (pH 5.75, 25° C.); 0.0118 s⁻¹ in data set [5] (pH 7.2, 25° C.); 0.00432 s⁻¹ in data set [6] (pH 5.75, 25° C.); 0.00171 s⁻¹ in data set [6] (pH 7.2, 25° C.). Further, the “RU bound at 50 nM mAb or Fab” value was determined as 10 in data set [5] (pH 5.75, 25° C.) and 13 in data set [5] (pH 7.2, 25° C.). The “Response bound at 50 nM mAb or Fab” value is 178 in data set [6] (pH 5.75, 25° C.) and 167 in data set [6] (pH 7.2, 25° C.). For the same molecule, the “Response bound at 50 nM mAb or Fab (RU)” value in data set [7] (setting [8]) worked out at 20; in data set [7] (setting [9]) it was 10.

For the origin of these results see patent US9120851B2, “Human antibodies to human angiopoietin-like protein 4” (Regeneron Pharmaceuticals, Inc., priority 2009, dated 2015).
